How the values were obtained:
[1] = target: GST-NUT8 wild type (396-470) (UniProt Q86Y26); test: BLI; GST-NUT8 wild type or mutants loaded on Anti-GST biosensors, TAZ2 (1723-1836) as analyte; 25 °C; 1x PBS, 0.1% BSA, 0.02% Tween 20; steady-state analysis
[2] = target: T1, p300 TAZ2 domain (1723-1836), Q09472; test: BLI; conditions: chain shown with the change, read off a plot
T1 chain: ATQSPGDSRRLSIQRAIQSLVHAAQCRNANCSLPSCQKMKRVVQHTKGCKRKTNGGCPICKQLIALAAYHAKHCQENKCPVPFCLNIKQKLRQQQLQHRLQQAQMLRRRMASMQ

NUT4 (347-480), Q86Y26 = target: T2, NUT4 (347-480), Q86Y26; test: SEC-MALS; Superdex 75 Increase 10/300 GL, 20 mM HEPES pH 7.0, 300 mM NaCl, 5 µM ZnSO4, 0.5 mM TCEP; 50 µl at 2 mg/ml injected
T2 chain: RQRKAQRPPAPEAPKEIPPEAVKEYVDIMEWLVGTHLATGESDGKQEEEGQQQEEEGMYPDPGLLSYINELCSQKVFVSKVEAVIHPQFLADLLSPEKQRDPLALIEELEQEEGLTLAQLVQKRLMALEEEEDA

[3] = target: T3, NUT-F1c (347-588), tag cleaved (UniProt Q86Y26 347-588); test: SEC; complex run on HiLoad Superdex 200, Superdex 200 Increase 10/300 GL or Superdex 75 Increase 10/300 GL; SDS-PAGE of the peak fractions; conditions: both partners purified
T3 construct: not shown: His6-GST (pETM-30) or His6 (pETM11), N-terminal, cleaved

Molecule: p300 TAZ2 domain (1723-1836) (from UniProt Q09472 1723-1836) (domain or fragment)
- Kd [1]: 960 nM

B1: GST-NUT8 wild type L410A; L411A; Y413A; L417A; C418A; F423A; V424A; V427A; V430A; I431A; F435A; L436A; L439A; L440A; D447A; L449A; A450G; L451A; E453A; E454A; … (protein)
chain: GQQQEEEGMYPDPGAASAINEAASQKVAASKAEAAAHPQAAADAASPEKQRAPAGAIAAAAQAAGAALAQLVQKRLMALEEEEDAE
- response ([2]; TAZ2 10 µM, parent: est. 0.22): 0.085 nm

B2: GST-NUT8 wild type D407K; L410A; Y413K; C418G; F423A; V424G; E428S; V430G; P433G; F435S; L439G; L440S; D447K; A450G; L451S; E454K; L455S; E458K; E459S; L461G; … (protein)
chain: GQQQEEEGMYPKPGALSKINELGSQKVAGSKVSAGIHGQSLADGSSPEKQRKPLGSIEKSEQKSGGSLAQLVQKRLMALEEEEDAE
- response ([2]; TAZ2 10 µM, parent: est. 0.22): 0.03 nm

B3: p300 TAZ2 domain (construct limits not told for the experiment) (domain or fragment)
chain: ATQSPGDSRRLSIQRAIQSLVHAAQCRNANCSLPSCQKMKRVVQHTKGCKRKTNGGCPICKQLIALAAYHAKHCQENKCPVPFCLNIKQKLRQQQLQHRLQQAQMLRRRMASMQ
modifications: not checked
- stoichiometry N (NUT4 (347-480), Q86Y26): 1

B4: GST-NUT8 wild type D447A; L449A; A450G; L451A; E453A; E454A; L455A; E456A; E458A; E459A; L461A; T462A (protein)
chain: GQQQEEEGMYPDPGLLSYINELCSQKVFVSKVEAVIHPQFLADLLSPEKQRAPAGAIAAAAQAAGAALAQLVQKRLMALEEEEDAE
- response ([2]; TAZ2 2.5 µM, parent: est. 0.18): 0.07 nm
- response ([2]; TAZ2 5 µM, parent: est. 0.21): 0.11 nm
- response ([2]; TAZ2 10 µM, parent: est. 0.22): 0.13 nm

B5: GST-NUT8 wild type L436A; L439A; L440A; D447A; L449A; A450G; L451A; E453A; E454A; L455A; E456A; E458A; E459A; L461A; T462A (protein)
chain: GQQQEEEGMYPDPGLLSYINELCSQKVFVSKVEAVIHPQFAADAASPEKQRAPAGAIAAAAQAAGAALAQLVQKRLMALEEEEDAE
- response ([2]; TAZ2 2.5 µM, parent: est. 0.18): 0.075 nm
- response ([2]; TAZ2 5 µM, parent: est. 0.21): 0.14 nm
- response ([2]; TAZ2 10 µM, parent: est. 0.22): 0.2 nm

B6: p300 CH3 domain (1660-1815) (domain or fragment, UniProt Q09472 1660-1815, looked up)
chain: TQSQDRFVYTCNECKHHVETRWHCTVCEDYDLCITCYNTKNHDHKMEKLGLGLDDESNNQQAAATQSPGDSRRLSIQRCIQSLVHACQCRNANCSLPSCQKMKRVVQHTKGCKRKTNGGCPICKQLIALCCYHAKHCQENKCPVPFCLNIKQKLRQ
notes: p300 CH3 domain, residues 1660-1815, in pGEX-5x1 with a TEV-cleavable GST tag
- binding result [3]: binds
